Common to all, as to assay: PepSpot peptide array
One assay concerns the target T1, peptide 117 (human).
T1 sequence (peptide, N-terminus acetylated): SFTNKVFTTETSR

A further assay addresses T2, peptide 118 (human).
T2 sequence (peptide, N-terminus acetylated): TNKVFTTETSRSI

In the next assay the target is T3, peptide 7 (human).
T3 sequence (peptide, N-terminus acetylated): LCLGRVPAQSGPL

B1: monoclonal antibody hGP 5C4 (antibody, V domains shown)
VH: EVKLQESGGGLVQPGRSLKLSCTASGFTFSDYFMSWVRQAPTRGLEWVASISSGGASAYWRDSVKGRFTISRDNAKSALYLQMDSLRSEDTATYFCARGELDFDYWGQGVMVAVSS
VL: ADPNSTLLSASVGDRVTLNCTASQNVYKNLAWYQQKLGEAPRLLLYSANSQTGIPSRFSGSGSGPDFTLTISSLQPEDVASYFCQQYYSGNTFGAGTKLELKR
Regarding B1, the figures for the LU (Light Units) in the assay with peptide 117 (human), in the assay with peptide 118 (human) and in the assay with peptide 7 (human) were 472 LU, 336 LU and 292 LU, respectively.

The record behind these values is patent US20070071744A1.
